Experiments:
[1] = test system: 50:50 coculture of Caco-2:HT29-MTX cells
Sprague-Dawley rats [2] = assay: Blood glucose response after subcutaneous administration; assay type: in vivo, rat; conditions: subcutaneous 1 IU/kg, fasted Sprague-Dawley rats, Fig. 7
Sprague-Dawley rats [3] = assay: Blood glucose response after intestinal closed-loop; assay type: in vivo, rat
[4] = rat, in vivo

Substance: 1KPI: bovine insulin conjugated with 1000 da PEG via PEG nitrophenyl carbonate
- Papp × 10^−9 (cm/s) [1]: 3.28 ± 0.88 × 10^−9 cm/s
- effect on blood glucose level (Sprague-Dawley rats [2]): effective at reducing the glucose levels below baseline throughout the testing period

Substance: 2KPI: bovine insulin conjugated with 2000 da PEG via PEG nitrophenyl carbonate, 1:1, at LysB29
- Papp × 10^−9 (cm/s) [1]: 2.90 ± 0.86 × 10^−9 cm/s
- increase of the pharmacological availability over insulin (Sprague-Dawley rats [3]; 50 IU/kg to the small intestine, rat): 2.8 times

Substance: 5KPI: bovine insulin conjugated with 5000 da PEG via PEG nitrophenyl carbonate
- Papp × 10^−9 (cm/s) [1]: 2.44 ± 0.06 × 10^−9 cm/s
- effect on blood glucose level (Sprague-Dawley rats [2]): least effect of the PEGylated insulin samples on blood glucose levels

Substance: Bovine insulin
- AUC [4]: 12610 ± 9850 ng·h/mL
- BA (%) [4]: 1.064 ± 0.83%
- effect on blood glucose level (Sprague-Dawley rats [2]): effective at reducing the glucose levels below baseline throughout the testing period
- effect on blood glucose level (Sprague-Dawley rats [3]; 50 IU/kg delivered directly to the ileum, Fig. 8): limited hypoglycemic response
